Drawing on PMC7841792, this text covers Km and Vmax for one protein.

Substrate in the data set: C[C@H](O)C(=O)O
Description: purified protein. The note with it: 20 mM HEPES pH 7.4, 50 μM Ampliflu Red, 0.1 U/mL HRP, mean ± SEM, n = 3, lactate enantiomer not given.

B1: lactate oxidase (LOX, EC 1.1.3.2) (Aerococcus viridans ATCC 11563 = CCUG 4311) (protein)
chain: MNNNDIEYNAPSEIKYIDVVNTYDLEEEASKVVPHGGFNYIAGASGDEWTKRANDRAWKHKLLYPRLAQDVEAPDTSTEILGHKIKAPFIMAPIAAHGLAHTTKEAGTARAVSEFGTIMSISAYSGATFEEISEGLNGGPRWFQIYMAKDDQQNRDILDEAKSDGATAIILTADSTVSGNRDRDVKNKFVYPFGMPIVQRYLRGTAEGMSLNNIYGASKQKISPRDIEEIAGHSGLPVFVKGIQHPEDADMAIKRGASGIWVSNHGARQLYEAPGSFDTLPAIAERVNKRVPIVFDSGVRRGEHVAKALASGADVVALGRPVLFGLALGGWQGAYSVLDYFQKDLTRVMQLTGSQNVEDLKGLDLFDNPYGYEY
B1: the Km worked out at 1620 ± 480 µM and the Vmax was determined as 22 µmol/min/mg.
